# Measurements taken from the supplement of paper PMC9112550, “Optimization of the antimicrobial peptide Bac7 by deep mutational scanning” (BMC Biology, 2022).
# Tested on: Escherichia coli TOP10
# Test: shrunken log2 fold change of peptide-encoding DNA abundance (4.5 h post-induction vs induction); higher = less antimicrobial activity (less host growth inhibition)
# Conditions: time post-induction: 4.5 h; library: site-saturation at positions 5, 18, 19, 20
# 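Note: peptides expressed intracellularly from a pBAD plasmid library in pooled LB shake-flask culture, induced with 0.3% L-arabinose, DNA abundance read by NGS, three biological replicates, DESeq2 with apeglm shrinkage.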
row,Sequence,shrunken log2 fold change
1,RRIRIRPPRLPRPRPRPCDCPRP,-0.0657
2,RRIRKRPPRLPRPRPRPLQDPRP,0.485
3,RRIRVRPPRLPRPRPRPYCSPRP,-0.0744
4,RRIRGRPPRLPRPRPRPHHGPRP,0.0719
5,RRIRMRPPRLPRPRPRPQMSPRP,0.174
6,RRIRLRPPRLPRPRPRPDRNPRP,0.0573
7,RRIRIRPPRLPRPRPRPPAWPRP,0.146
8,RRIRRRPPRLPRPRPRPKLCPRP,0.333
9,RRIRMRPPRLPRPRPRPVVGPRP,0.448
10,RRIRTRPPRLPRPRPRPQQSPRP,-0.0133
11,RRIRHRPPRLPRPRPRPHDPPRP,-0.613
12,RRIRRRPPRLPRPRPRPFRRPRP,0.322
13,RRIRLRPPRLPRPRPRPKVLPRP,-0.128
14,RRIRFRPPRLPRPRPRPPCTPRP,-0.228
15,RRIRDRPPRLPRPRPRPQIFPRP,-0.00965
16,RRIRVRPPRLPRPRPRPDDVPRP,-0.297
17,RRIRCRPPRLPRPRPRPQGDPRP,0.0138
18,RRIRMRPPRLPRPRPRPYDIPRP,0.0444
19,RRIRWRPPRLPRPRPRPAVCPRP,0.803
20,RRIRDRPPRLPRPRPRPQWGPRP,-0.0612
21,RRIRMRPPRLPRPRPRPNVQPRP,-0.166
22,RRIRNRPPRLPRPRPRPPDNPRP,-0.146
23,RRIRGRPPRLPRPRPRPKDFPRP,-0.0214
24,RRIRTRPPRLPRPRPRPHERPRP,0.594
25,RRIRARPPRLPRPRPRPQCKPRP,-0.077

row,Sequence,shrunken log2 fold change
1,RRIRARPPRLPRPRPRPIYCPRP,0.241
2,RRIRQRPPRLPRPRPRPSHVPRP,-0.367
3,RRIRSRPPRLPRPRPRPHRGPRP,-0.128
4,RRIRPRPPRLPRPRPRPTWEPRP,0.659
5,RRIRDRPPRLPRPRPRPSVLPRP,-0.246
6,RRIRARPPRLPRPRPRPTASPRP,0.74
7,RRIRFRPPRLPRPRPRPRMWPRP,0.127
8,RRIRGRPPRLPRPRPRPPHMPRP,0.489
9,RRIRQRPPRLPRPRPRPLDAPRP,0.109
10,RRIRPRPPRLPRPRPRPVVVPRP,-0.0997
11,RRIRERPPRLPRPRPRPGMKPRP,0.0657
12,RRIRSRPPRLPRPRPRPESDPRP,0.306
13,RRIRVRPPRLPRPRPRPGFKPRP,-0.0945
14,RRIRERPPRLPRPRPRPYMKPRP,-0.438
15,RRIRDRPPRLPRPRPRPACAPRP,0.705
16,RRIRVRPPRLPRPRPRPGNIPRP,-0.116
17,RRIRQRPPRLPRPRPRPTSCPRP,-0.0676
18,RRIRFRPPRLPRPRPRPDMFPRP,-0.0758
19,RRIRWRPPRLPRPRPRPMFRPRP,-0.129
20,RRIRRRPPRLPRPRPRPQGRPRP,0.544
21,RRIRWRPPRLPRPRPRPDWAPRP,-0.107
22,RRIRCRPPRLPRPRPRPMNIPRP,-0.693
23,RRIRNRPPRLPRPRPRPRGWPRP,0.962
24,RRIRKRPPRLPRPRPRPFEHPRP,-0.0326
25,RRIRMRPPRLPRPRPRPSYLPRP,-0.336

row,Sequence,shrunken log2 fold change
1,RRIRKRPPRLPRPRPRPDFCPRP,0.129
2,RRIRVRPPRLPRPRPRPMKVPRP,-0.194
3,RRIRDRPPRLPRPRPRPSKNPRP,-0.106
4,RRIRWRPPRLPRPRPRPSQAPRP,-0.126
5,RRIRMRPPRLPRPRPRPQWGPRP,0.0503
6,RRIRRRPPRLPRPRPRPKHRPRP,0.376
7,RRIRRRPPRLPRPRPRPTPKPRP,1.24
8,RRIRRRPPRLPRPRPRPKGDPRP,0.3
9,RRIRERPPRLPRPRPRPRYRPRP,-0.198
10,RRIRDRPPRLPRPRPRPQGNPRP,-0.0306
11,RRIRERPPRLPRPRPRPRNKPRP,-0.121
12,RRIRPRPPRLPRPRPRPQHDPRP,-0.176
13,RRIRVRPPRLPRPRPRPTDPPRP,0.328
14,RRIRWRPPRLPRPRPRPRWGPRP,0.534
15,RRIRVRPPRLPRPRPRPQWYPRP,-0.327
16,RRIRRRPPRLPRPRPRPCRVPRP,0.0136
17,RRIRLRPPRLPRPRPRPKYMPRP,-0.544
18,RRIRGRPPRLPRPRPRPIIKPRP,0.237
19,RRIRMRPPRLPRPRPRPNKWPRP,0.079
20,RRIRARPPRLPRPRPRPRHIPRP,-0.177
21,RRIRFRPPRLPRPRPRPAAHPRP,0.333
22,RRIRCRPPRLPRPRPRPSIGPRP,-0.098
23,RRIRARPPRLPRPRPRPWHNPRP,-0.0874
24,RRIRARPPRLPRPRPRPNTQPRP,-0.0663
25,RRIRMRPPRLPRPRPRPFEWPRP,0.174

row,Sequence,shrunken log2 fold change
1,RRIRSRPPRLPRPRPRPDEGPRP,0.0432
2,RRIRTRPPRLPRPRPRPEISPRP,0.00497
3,RRIRYRPPRLPRPRPRPMTAPRP,-0.0394
4,RRIRIRPPRLPRPRPRPSKFPRP,-0.245
5,RRIRKRPPRLPRPRPRPTNTPRP,1.79
6,RRIRYRPPRLPRPRPRPDLAPRP,-0.344
7,RRIRARPPRLPRPRPRPCGCPRP,0.807
8,RRIRLRPPRLPRPRPRPTSVPRP,-0.0387
9,RRIRNRPPRLPRPRPRPYATPRP,-0.145
10,RRIRPRPPRLPRPRPRPPLIPRP,-0.338
11,RRIRNRPPRLPRPRPRPLMHPRP,-0.0721
12,RRIRARPPRLPRPRPRPAQAPRP,0.939
13,RRIRHRPPRLPRPRPRPRATPRP,0.554
14,RRIRCRPPRLPRPRPRPSYDPRP,-0.428
15,RRIRIRPPRLPRPRPRPICAPRP,0.0269
16,RRIRTRPPRLPRPRPRPKNIPRP,-0.627
17,RRIRLRPPRLPRPRPRPCCHPRP,-0.215
18,RRIRNRPPRLPRPRPRPRNGPRP,-0.0619
19,RRIRHRPPRLPRPRPRPRHVPRP,-0.324
20,RRIRPRPPRLPRPRPRPCIYPRP,-0.536
21,RRIRQRPPRLPRPRPRPQVDPRP,-0.0137
22,RRIRQRPPRLPRPRPRPDIDPRP,-0.078
23,RRIRQRPPRLPRPRPRPIVCPRP,-0.137
24,RRIRVRPPRLPRPRPRPWDPPRP,-0.301
25,RRIRERPPRLPRPRPRPDNPPRP,-0.0894

row,Sequence,shrunken log2 fold change
1,RRIRMRPPRLPRPRPRPGWFPRP,1.16
2,RRIRERPPRLPRPRPRPVMLPRP,0.055
3,RRIRSRPPRLPRPRPRPNLKPRP,0.087
4,RRIRHRPPRLPRPRPRPGCVPRP,0.000164
5,RRIRPRPPRLPRPRPRPTLAPRP,0.332
6,RRIRFRPPRLPRPRPRPHFSPRP,-0.24
7,RRIRMRPPRLPRPRPRPPNHPRP,0.206
8,RRIRDRPPRLPRPRPRPQYLPRP,-0.248
9,RRIRRRPPRLPRPRPRPNPCPRP,0.0776
10,RRIRQRPPRLPRPRPRPHEIPRP,-0.0149
11,RRIRERPPRLPRPRPRPWYFPRP,-0.171
12,RRIRYRPPRLPRPRPRPNCLPRP,-0.942
13,RRIRMRPPRLPRPRPRPDNQPRP,0.0198
14,RRIRVRPPRLPRPRPRPVMDPRP,-0.324
15,RRIRGRPPRLPRPRPRPFGVPRP,0.446
16,RRIRWRPPRLPRPRPRPRIAPRP,0.133
17,RRIRQRPPRLPRPRPRPISSPRP,0.00776
18,RRIRRRPPRLPRPRPRPDNHPRP,-0.215
19,RRIRIRPPRLPRPRPRPFMNPRP,-0.16
20,RRIRLRPPRLPRPRPRPSCRPRP,-0.116
21,RRIRNRPPRLPRPRPRPKENPRP,-0.409
22,RRIRNRPPRLPRPRPRPMNRPRP,-0.00285
23,RRIRARPPRLPRPRPRPPSEPRP,1.17
24,RRIRIRPPRLPRPRPRPIEHPRP,0.00487
25,RRIRMRPPRLPRPRPRPSAGPRP,0.655

row,Sequence,shrunken log2 fold change
1,RRIRKRPPRLPRPRPRPSFTPRP,-0.272
2,RRIRDRPPRLPRPRPRPFHNPRP,-0.271
3,RRIRGRPPRLPRPRPRPHMGPRP,0.121
4,RRIRIRPPRLPRPRPRPNCKPRP,-0.658
5,RRIRRRPPRLPRPRPRPHDQPRP,0.0964
6,RRIRIRPPRLPRPRPRPDGTPRP,-0.303
7,RRIRGRPPRLPRPRPRPWAIPRP,0.259
8,RRIRMRPPRLPRPRPRPCIDPRP,0.428
9,RRIRVRPPRLPRPRPRPGSSPRP,-0.169
10,RRIRSRPPRLPRPRPRPGAYPRP,-0.0377
11,RRIRRRPPRLPRPRPRPMVGPRP,0.397
12,RRIRCRPPRLPRPRPRPLHHPRP,-0.469
13,RRIRVRPPRLPRPRPRPLKIPRP,-0.0769
14,RRIRSRPPRLPRPRPRPGHRPRP,-0.326
15,RRIRSRPPRLPRPRPRPHRFPRP,-0.301
16,RRIRYRPPRLPRPRPRPQTVPRP,-0.261
17,RRIRIRPPRLPRPRPRPMGPPRP,0.0284
18,RRIRKRPPRLPRPRPRPKNQPRP,0.419
19,RRIRHRPPRLPRPRPRPKLDPRP,0.225
20,RRIRCRPPRLPRPRPRPQTMPRP,-0.349
21,RRIRQRPPRLPRPRPRPVQDPRP,-0.0297
22,RRIRCRPPRLPRPRPRPCEDPRP,-0.219
23,RRIRERPPRLPRPRPRPLRQPRP,0.0463
24,RRIRMRPPRLPRPRPRPLRLPRP,0.959
25,RRIRWRPPRLPRPRPRPTECPRP,0.0746
